According to patent US20260242478A1 (published 2026):
Where no end group is shown, it is not given here.

How the values were obtained:
[1] = biological target: T1, Anti-CD28 Fab (SEQ ID NOs: 696, 697); assay: phage ELISA on anti-CD28 Fab plates; competitor CD28 antigen pre-incubated in the wells
T1 construct: Biotinylated and captured on neutravidin coated plates in the phage ELISA
T1 sequence (VH, as listed by the source, chain 1 of 2): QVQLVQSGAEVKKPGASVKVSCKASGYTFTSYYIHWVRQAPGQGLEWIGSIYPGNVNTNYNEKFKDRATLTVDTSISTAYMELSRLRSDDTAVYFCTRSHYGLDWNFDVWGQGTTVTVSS
T1 sequence (VL, as listed by the source, chain 2 of 2): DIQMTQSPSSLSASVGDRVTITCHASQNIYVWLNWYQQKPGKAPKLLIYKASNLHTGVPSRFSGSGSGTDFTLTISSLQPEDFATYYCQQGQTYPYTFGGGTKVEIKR
Method: (§1) After panning, phage infected bacteria were plated out and colonies picked into 96 well blocks. Clonal phage was then amplified and separated from bacterial cells via centrifugation.
(§2) Clonal phage were harvested as crude supematants and screened via standard ELISAs. […] Prior to the addition of clonal phage, wells were incubated with blocking buffer and CD28 antigen or blocking buffer alone. Without washing or aspirating, clonal phage supematants were then added to the wells and incubated for a short time. Wells were then washed followed by detection of bound phage using a horse radish conjugated anti-M13 antibody. Clonal phage of interest were then sent for sequence analysis.

[2] = biological target: T1, Anti-CD28 Fab (SEQ ID NOs: 696, 697); assay: phage ELISA; biotinylated anti-CD28 Fab on neutravidin plates, bound phage detected with anti-M13 HRP
Method: as §1, §2

[3] = biological target: T2, Anti-CD28 Fab (SEQ ID NOs: 696, 697); assay: phage binding ELISA, biotinylated Fab on neutravidin plate, anti-M13 HRP detection;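 also: crude clonal phage supernatants added to Fab-coated wells pretreated with CD28 antigen or with blocking buffer only, bound phage measured after washing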
T2 construct: Biotinylated and captured on neutravidin coated plates in the phage ELISA
T2 sequence (VH, as listed by the source, chain 1 of 2): as the sequence (VH, as listed by the source, chain 1 of 2) above
T2 sequence (VL, as listed by the source, chain 2 of 2): as the sequence (VL, as listed by the source, chain 2 of 2) above
Method: as §1, §2

[4] = biological target: T2, Anti-CD28 Fab (SEQ ID NOs: 696, 697); assay: phage binding ELISA, Fab on plate pre-incubated with CD28 antigen as competitor
Method: as §1, §2

[5] = biological target: T3, Anti-CD28 Fab (SEQ ID NOs: 696, 697); assay: phage binding ELISA; biotinylated anti-CD28 Fab on neutravidin plate, bound phage detected with anti-M13 HRP;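 also: crude supernatants of clonal phage screened, wells pretreated with blocking buffer with or without CD28 antigen before brief phage incubation, washed, then bound phage detected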
T3 construct: In the phage ELISA the Fab was biotinylated and captured on neutravidin coated plates
T3 sequence (VH, as listed by the source, chain 1 of 2): as the sequence (VH, as listed by the source, chain 1 of 2) above
T3 sequence (VL, as listed by the source, chain 2 of 2): as the sequence (VL, as listed by the source, chain 2 of 2) above
Method: as §1, §2

[6] = biological target: T3, Anti-CD28 Fab (SEQ ID NOs: 696, 697); assay: phage binding ELISA on captured anti-CD28 Fab; competitor: CD28 antigen
Method: as §1, §2

[7] = biological target: Anti-CD28 Fab (SEQ ID NOs: 696, 697); assay: phage binding ELISA; biotinylated anti-CD28 Fab on neutravidin plate, clonal phage supernatant, anti-M13 HRP;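 also: crude clonal phage supernatants screened after wells were preincubated either with CD28 antigen in blocking buffer or with blocking buffer only, phage added without washing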
Target sequence in this assay (VH, as listed by the source, chain 1 of 2): as the sequence (VH, as listed by the source, chain 1 of 2) above
Target sequence in this assay (VL, as listed by the source, chain 2 of 2): as the sequence (VL, as listed by the source, chain 2 of 2) above
Method: as §1, §2

[8] = biological target: Anti-CD28 Fab (SEQ ID NOs: 696, 697); assay: phage binding ELISA; captured anti-CD28 Fab pre-incubated with CD28 antigen as competitor, anti-M13 HRP
Target sequence in this assay (VH, as listed by the source, chain 1 of 2): as the sequence (VH, as listed by the source, chain 1 of 2) above
Target sequence in this assay (VL, as listed by the source, chain 2 of 2): as the sequence (VL, as listed by the source, chain 2 of 2) above
Method: as §1, §2

Binder	Anti-CD28 Fab (SEQ ID NOs: 696, 697) signal [3]	Anti-CD28 Fab signal in the presence of CD28 [4]	Anti-CD28 Fab signal [5]	Anti-CD28 Fab signal in the presence of CD28 [6]	other results
YCDGHAPEYMAKCL [Phage-549]					Phage binding ELISA, Anti-CD28 Fab signal in the presence of CD28 [1]: 0.09; Phage binding ELISA, Anti-CD28 Fab signal [2]: 2.3
YCDGHVPEYMAKCL (Clonal phage of the Peptide-87 library, tested as crude supernatant; not shown: pIII of the bacteriophage to which the peptide is fused) [Phage-560]	2.29	0.07			
YCEGHLPMYMEKCL (cysteine pairing not given here; also: displayed on phage by fusion to pIII, pIII and linker sequence not given here) [Phage-575]			2.25	0.1	
YCDGHLDEYMAKCL [Phage-546]					Phage binding ELISA, Anti-CD28 Fab signal in the presence of CD28 [1]: 0.08; Phage binding ELISA, Anti-CD28 Fab signal [2]: 2.31
YCQGHAPEYMAKCL (Clonal phage of the Peptide-87 library, tested as crude supernatant; not shown: pIII of the bacteriophage to which the peptide is fused) [Phage-562]	2.28	0.1			
YCEGHSAQYMSKCL (Clonal phage of the Peptide-87 library, tested as crude supernatant; not shown: pIII of the bacteriophage to which the peptide is fused) [Phage-557]	2.29	0.07			
YCEGHSSEYMLKCL (Clonal phage of the Peptide-87 library, tested as crude supernatant; not shown: pIII of the bacteriophage to which the peptide is fused) [Phage-555]	2.3	0.07			
YCEGHTMEYMWKCL [Phage-542]					Phage binding ELISA, Anti-CD28 Fab signal in the presence of CD28 [1]: 0.07; Phage binding ELISA, Anti-CD28 Fab signal [2]: 2.31
YCDGHSSEYMAKCL (Clonal phage of the Peptide-87 library, tested as crude supernatant; not shown: pIII of the bacteriophage to which the peptide is fused) [Phage-565]	2.28	0.09			
YCDGHSREYIAKCL (Clonal phage of the Peptide-87 library, tested as crude supernatant; not shown: pIII of the bacteriophage to which the peptide is fused) [Phage-558]	2.29	0.08			
YCEGHSEEYISKCL [Phage-551]					Phage binding ELISA, Anti-CD28 Fab signal in the presence of CD28 [1]: 0.08; Phage binding ELISA, Anti-CD28 Fab signal [2]: 2.3
YCEGHTPEYMQKCL [Phage-568]			2.27	0.07	
YCDGHAKEYMWKCL (Clonal phage of the Peptide-87 library, tested as crude supernatant; not shown: pIII of the bacteriophage to which the peptide is fused) [Phage-554]	2.3	0.07			
YCDGHLPMYMMKCL (Clonal phage of the Peptide-87 library, tested as crude supernatant; not shown: pIII of the bacteriophage to which the peptide is fused) [Phage-561]	2.28	0.14			
YCEGHAAEYMEKCL (Clonal phage of the Peptide-87 library, tested as crude supernatant; not shown: pIII of the bacteriophage to which the peptide is fused) [Phage-556]	2.3	0.11			
YCEGHSPEYMEKCL (cysteine pairing not given here; also: displayed on phage by fusion to pIII, pIII and linker sequence not given here) [Phage-578]			2.24	0.07	
YCDGHLPQYMMKCL (cysteine pairing not given here; also: displayed on phage by fusion to pIII, pIII and linker sequence not given here) [Phage-569]			2.27	0.14	
YCDGHLPEYLWKCL (cysteine pairing not given here; also: displayed on phage by fusion to pIII, pIII and linker sequence not given here) [Phage-574]			2.26	0.13	
YCDGHAAEYMAKCL (cysteine pairing not given here; also: displayed on phage by fusion to pIII, pIII and linker sequence not given here) [Phage-572]			2.26	0.13	

Binder	Anti-CD28 Fab (SEQ ID NOs: 696, 697) signal [3]	Anti-CD28 Fab signal in the presence of CD28 [4]	Anti-CD28 Fab signal [5]	Anti-CD28 Fab signal in the presence of CD28 [6]	other results
YCAGHLPEYMPHCI [Phage-543]					Phage binding ELISA, Anti-CD28 Fab signal in the presence of CD28 [1]: 0.09; Phage binding ELISA, Anti-CD28 Fab signal [2]: 2.31
YCDGHTLEYMWKCL [Phage-547]					Phage binding ELISA, Anti-CD28 Fab signal in the presence of CD28 [1]: 0.13; Phage binding ELISA, Anti-CD28 Fab signal [2]: 2.31
YCAGHLPEYMEKCL [Phage-579]					Anti-CD28 Fab (SEQ ID NOs: 696, 697) signal [7]: 2.24; Anti-CD28 Fab signal in the presence of CD28 [8]: 0.12
YCEGHLPIYLEKCM [Phage-567]			2.27	0.1	
YCDGHSPQYIEKCL [Phage-544]					Phage binding ELISA, Anti-CD28 Fab signal in the presence of CD28 [1]: 0.07; Phage binding ELISA, Anti-CD28 Fab signal [2]: 2.31
YCEGHSQEYMSKCL (cysteine pairing not given here; also: displayed on phage by fusion to pIII, pIII and linker sequence not given here) [Phage-573]			2.26	0.07	
YCEGHSPLYMWKCL (cysteine pairing not given here; also: displayed on phage by fusion to pIII, pIII and linker sequence not given here) [Phage-577]			2.25	0.06	
YCAGHSPEHMWKCL [Phage-550]					Phage binding ELISA, Anti-CD28 Fab signal in the presence of CD28 [1]: 0.06; Phage binding ELISA, Anti-CD28 Fab signal [2]: 2.3
YCDGHSPEYILKCL [Phage-545]					Phage binding ELISA, Anti-CD28 Fab signal in the presence of CD28 [1]: 0.09; Phage binding ELISA, Anti-CD28 Fab signal [2]: 2.31
YCDGHSQEYMMKCL (Clonal phage of the Peptide-87 library, tested as crude supernatant; not shown: pIII of the bacteriophage to which the peptide is fused) [Phage-563]	2.28	0.06			
YCEGHLPLYMWKCL [Phage-548]					Phage binding ELISA, Anti-CD28 Fab signal in the presence of CD28 [1]: 0.07; Phage binding ELISA, Anti-CD28 Fab signal [2]: 2.3
YCEGHLGIYMYKCL (cysteine pairing not given here; also: displayed on phage by fusion to pIII, pIII and linker sequence not given here) [Phage-571]			2.26	0.14	
YCDGHLSEYMEKCL (cysteine pairing not given here; also: displayed on phage by fusion to pIII, pIII and linker sequence not given here) [Phage-576]			2.25	0.08	
YCDGHLPIYMAKCL [Phage-552]					Phage binding ELISA, Anti-CD28 Fab signal in the presence of CD28 [1]: 0.14; Phage binding ELISA, Anti-CD28 Fab signal [2]: 2.3
YCDGHLPQYMWKCL (Clonal phage of the Peptide-87 library, tested as crude supernatant; not shown: pIII of the bacteriophage to which the peptide is fused) [Phage-559]	2.29	0.12			
YCSGHLPQYMQKCL (Clonal phage of the Peptide-87 library, tested as crude supernatant; not shown: pIII of the bacteriophage to which the peptide is fused) [Phage-564]	2.28	0.08			
YCDGHAPQYMQKCL [Phage-566]			2.28	0.11	
YCDGHAPQYMRKCL (Clonal phage of the Peptide-87 library, tested as crude supernatant; not shown: pIII of the bacteriophage to which the peptide is fused) [Phage-553]	2.3	0.07			
YCDGHSTEYLWKCL (cysteine pairing not given here; also: displayed on phage by fusion to pIII, pIII and linker sequence not given here) [Phage-570]			2.26	0.06	
